Reference: the DeepSol protein solubility set

Assay: soluble on expression in E. coli; label from the status in PepcDB or PDB records

Row | Sequence | soluble on expression in E. coli
1 | AGALWEIEKELFTKLPAPSSAINSHLQPAKPKVPQKKPSKWDPPAEFKVDLSTAVSYNDIGDINWKNLQQFKGIERSEKGTEGLFFVETESGVFIVKRSTNIESETFCSLLCMRLGLHAPKVRVVSSNSEEGTNMLECLAAIDKSFRVITTLANQANILLMELVRGITLNKLTTTSAPEVLTKSTMQQLGSLMALDVIVNNSDRLPIAWTNEGNLDNIMLSERGATVVPIDSKIIPLDASHPHGERVRELLRTLIAHPGHESSQFHSIRDIITLYTGYDVGTEGSISMQEGFLATVRECASFDLDAFERELLSWQESLQKCHNLSISPQAIPFILRMLRIFH | soluble
2 | MQSVELPETHQMLLQTCRDFAEKELFPIAAQVDKEHLFPAAQVKKMGGLGLLAMDVPEELGGAGLDYLAYAIAMEEISRGCASTGVIMSVNNSLYLGPILKFGSKEQKQAWVTPFTSGDKIGCFALSEPGNGSDAGAASTTARAEGDSWVLNGTKAWITNAWEASAAVVFASTDRALQNKSISAFLVPMPTPGLTLGKKEDKLGIRGSSTANLIFEDCRIPKDSILGEPGMGFKIAMQTLDMGRIGIASQALGIAQTALDCAVNYAENRMAFGAPLTKLQVIQFKLADMALALESARLLTWRAAMLKDNKKPFIKEAAMAKLAASEAATAISHQAIQILGGMGYVTEMPAERHYRDARITEIYEGTSEIQRLVIAGHLLRSYRSAENLYFQ | soluble
3 | MGSDKIHHHHHHMENQDYTVRLTVQASPQEVFKQINRVTAWWTKNLQGDSEKLNDVFTVNFPGMHVSTQKLIECIPDKKVTWMVTDSHLTFIQRKTEWTDTTIQFDISRNVKHTEVLFTHKGLNPAIECYGDCAKGWDYFIKGSLFKLLTEGTGTPE | not soluble
4 | MMVVKVKMLYWVDEVGGRAESMEIELKPFGYRTAPITQWEVLIAAEDVEVEKGKPVIVRVEPVFLPGNTLVGPLSIMRHALGTLVDVVECGVPGRVEDEKCISRVLFLPVEDGVIKKGDMVGVLKVFYIKTGLLTRILGLEPPKVELKKGFHEANIVWRDNGNIYREPAKVTILGYMRSHIGVWELLVADETVRVKRGDVLRIRIKEVRLPPNTVVVPLPVMRNAFGTVLDVVQLGKPSRVEEEKTLHQAIFLAVEDGVIEEGDLIGVINVYYVGLGDFKPLVQDKPPQKVRIVYRSGDGIVKREVEVEPFGYRRSPVGKWEALIADESKPVRYGEPVVVKVKRVRVPPKTILYPLHIMRHAYGTVADVFCDCKPWKVEEGGEIKKVVFLPVMDGEIKEGELLGIINLHDVELSPLGRVRQWLDNWLTEMGRTFDEGDWPLWLEHHHHHH | soluble
5 | MTRIAIVGAGPAGLSLAYFLKGSRKVEATVYESMPEPGLKPCAWGLITGIENIIPIPNETIISEIRGFRIYLDNKLVFDIRTDNKLGYIIDKPLFLKRLSQEVNVEFNSKVVKKDDKYYINDKSLDHDKVIFATGHYSVSKSMSIPAIQYITDYEIDKEVVEFYFYSGFLGYAWVFPDREGSKIGIGGYAEVPELKERLKQILKGRIRTFHGARVTDYGVIEDRLDGNYTGEALGTVYAITGEGIRPSIISSKILADSILNRKDFKKEFKKSKLYWSLNWHAKIIKMTKENDPGTARLSKALLNNDPQLILKFAIGEFNRVDLIKIFGRSLILEHHHHHH | soluble
6 | MRKIIHVDMDCFFAAVEMRDNPALRDIPIAIGGSRERRGVISTANYPARKFGVRSAMPTGMALKLCPHLTLLPGRFDAYKEASNHIREIFSRYTSRIEPLSLDEAYLDVTDSVHCHGSATLIAQEIRQTIFNELQLTASAGVAPVKFLAKIASDMNKPNGQFVITPAEVPAFLQTLPLAKIPGVGKVSAAKLEAMGLRTCGDVQKCDLVMLLKRFGKFGRILWERSQGIDERDVNSERLRKSVGVERTMAEDIHHWSECEAIIERLYPELERRLAKVKPDLLIARQGVKLKFDDFQQTTQEHVWPRLNKADLIATARKTWDERRGGRGVRLVGLHVTLLDPQMERQLVLGL | soluble
7 | MGSDKIHHHHHHMSSSDRYMQRGVSSQKEDVHKAIKSIDKGIYPRAFCKIIPDILGGDPEYCNIMHADGAGTKSSLAYVYWKETGDISVWKGIAQDAVIMNIDDLICVGAVDNILLSSTIGRNKNLIPGEVLAAIINGTEEVLQMLRDNGIGIYSTGGETADVGDLVRTIIVDSTVTCRMKRQDVISNENIKAGNVIVGFASYGQTSYETEYNGGMGSNGLTSARHDVFNNVLASKYPESFDPKVPENLVYSGEMNLTDPYLNVPLDAGKLVLSPTRTYAPLMKEIIHQYKGKLDGVVHCSGGGQTKVLHFTDATTHIIKDNLFDVPPLFQLIQGQSNTPWEEMYKVFNMGHRLEIYTDAAHAEGMIAIAKKFNIEAKIIGRVEAPVAGKRLTITGPQGTEYTYA | not soluble
8 | MKIRVVSSKEEIDTLKLNEEIVHLAFRPSNKDIFKLILKCPEVKAIHIPSSYKRTISSSAQMYLSMQNIALLEGDVWGHRKDINEYSEVSEHVFDRIKELKEEGLSDEDTIEKLVRETRLSPDFVTFIISN | not soluble
9 | MLPLSSVELTDIKTDDLDIKWDNVQQFKLGDGSYADVFHVFYKGHDAVLKRSIKEYTDKERENIRREARVVAALNNCENVVRIYGICETLPFRGMIMEYCAGPNLSELVFQLDECKVKFETLRIFKWCHDLTRTLCELNVTYYHGDVKAKNVLVKERPCCCVEGIYENVKIRNTTYSLCTICNGVHLEHLSLKICDFGMSYEHKDKRLYNGGTREFSAPETIRGIYTEKSEVYSFGHLMLVLVIGGPTEDDCAVGQRAFLKMYNNKKYDMSGCKSNSICETIEWCLNNTQESRPTFKQLLSKLNSRHTHYLSLRGTDTRRLEANNEREEFLDHYRIPRKISVHRRTTTTSTCISLSETSGSNQDISVTSAAYLGGPIVNQMFIADTPLASPSASRKFRNDGFEKTNYVENQLYTGDETRKPFLTGGISHPGYSVMRKNSVWKFFVQARNSIRSKITKLVRKRK | not soluble
10 | KAFTPDEAARFYAAARADRWGWPLAFMLATGLRPGEALGLTWADVTMRGSAEGGTLAAVVHIERTRSVSGGRVYEDTPKTERGRRSLTVTGDAARLLLDARAQAEREAGARLRHNGREYQSTGYVFVTRAGTPYRPDNLRRPMARLCQAVGVPVLTPHKLRHTWASVQAAAGVPVEVLSAELGHAAPSFTRDTYRHVYESERASLTYDPLTPAAAPAPEPEPQGRKRV | not soluble
11 | TVQVPVYSEQEYQLYLHDDAWTKAETDHLFDLSRRFDLRFVVIHDRYDHQQFKKRSVEDLKERYYHICAKLANVRAVPGTDLKIPVFDAGHERRRKEQLERLYNRTPEQVAEEEYLLQELRKIEARKKEREKRSQDLQKLITAADTTAEQRRTERKAPKKKLPQKKEAEKPAVPETAGIKFPDFKSAGVTLRSQRMKLPSSVGQKKIKALEQMLLELGVELSPTPTEELVHMFNELRSDLVLLYELKQACANCEYELQMLRHRHEALARAGVLGGPATPASGPGPASAEPAVTEPGLGPDPKDTIIDVVGAPLTPNSRKRRESASSSSSVKKAKKP | soluble
12 | MSLDYGINFWSDNDFIIEDGQVKINYKTKPAIIDIVKKVREEGYRGPLLLRFPHLIKKQVDKIFTHFETSIKQYHYKGQFKAVFPLKVNQFPNFVLPLVELSQNRCYGLEAGSKAELIIAMAYTNKGSPITVNGFKDKEMISLGFIAANMGHEITLTIEGLNELETIIEVAEEMGKPCPNIGLRIRLHSSGIGIWAKSGGINSKFGLTSTELLEGIRLLEKHKLIEKFTMIHFHIGSQISDISPLKKAMREAGNIYAELRKMGAKNLKSVNIGGGLAVEYTQHEGSPNRNYTLDEFAGDVVFSLKEIAKNKKEPEPDIYIESGRYIAASHALLVAPVLELFSQEYDEKALHLKDKNPQLIEELNELYNTVNEKYAIEYLHDSLDHMESLLTLFDLGYIDLQDRSNTEILVHLIIKKVIKILKHKNHSDIIRIQEQVQERYLLNCSFFQSLPDYWGLEQSFPVMPLDRLNKRPTRSASLWDITCDSDGEIGFDLNKPLFLHDVDVTTEEYFLGFFLVGAYQEVLGMRHNLFTHPTELSVEFEEDGTHSVTNLLEAQTILDVLDDLDYDTKEIERRLKQRIEDSELIDDETRKEVLGQLYVMLSENGYLRTITNGEGHHHHHH | soluble
13 | GPGSMDLNMRLLTRIFTYRRNHAEQGTIMSSKIAELSGRILSQQQYSQILEQRRWLQGLLKEVSLDMGAKEKEKSASPVVLPYGSIVSGTSFKDGDADYIVSFPIVSESTRQSGACVIDRERQEKFLSDIFSHIRKRNSDVELHPQRIFRARVPIVQYVRKSGQESARFDLSLSLDGLKNSLLLRQYMAGDPRLRLGVLGAKQWGREQQILNARRGWISPYALSIMYIHYMKETGRTALSFDEEAVSQRVNAIVSTAAESEGDISHVDELASILPLQEADMLLVEKDVFDFFAFYGTPGGFDFDASVVDIRSRERFSSKDQWCQLLDQLDERERWNLLGHEVILLRDPFEPHSLGRSVDFFRGEEIRERFRSAAVRKEPLSLFAFL | not soluble
14 | MTSAPMSNPSSTSSVVTAAMLAIGDELLSGRTKDKNIGHLADVLTMSGIDLKEVRIVADEEESIVEALNALRSRYDYVFTSGGIGPTHDDITADAISAAFGLPCEHDAEALRLLGDMYRVREMEFTEARKRMARMPKGAAHIANPVSVAPGFVIGNVYVMAGVPQVFQAMLDNVMPTLRTGAKVMSQAVRSPYGEGDIGTPLTAIQKAHPETSIGSYPKYDGQRFSTEIVVRARDAGLLKAATEAVAAMIEAIGQEKQLAASKGDATA | not soluble
15 | CPDRWMKYGNHCYYFSVEEKDWNSSLEFCLARDSHLLVITDNQEMSLLQVFLSEAFSWIGLRNNSGWRWEDGSPLNFSRISSNSFVQTCGAINKNGLQASSCEVPLHWVCKK | soluble
16 | MDCQIGSRRCATWDEIEDAPQTKRLREDKVQENVPQQSVQPAPPPPAAQQAPAPAEQPKFYISAPIQGFTVNNQGGCRYLFF | not soluble
17 | MIKKLPLFIIVCLLAISSQALAETELEIEGLEGPLLSNVEAYISGIPEEDYSVSLRFQARLQESITDALKALGYYQSTTTFVVEGDTSDRTLLVNIDAGQPVIIYVSDIVISGEAAADEDFINAVDNSGLNLGQVINHGRYESLKSTLQNLALRKGYFDGDFTTNRLEIAPGRHQAIVRIHYDSGKRYSFGETSIDGSQIEEKRVRSIIPFQAGDPYLASQVGELNQYLSNTEWFSSVYVEPDIDAVGKTYQLPMKVHLSPQVRNQLETSIGYATDVGARGKIRWKKPWLNPEGHSLDTALSISKPEQEATISYKIPLEQVLKDYYVVKYGLKNVDNNDTDSLESNLAFERHWVYDSGWHRTIYTRFLYEEFTQGVQDGTAWLVLPGISFSKSRSRGGTMPMWGDKKAFTIEATDQALTSDVKLLRLQAQGAIVRSIGENHRGVARADIGAIYTDDFYKLPPSIRFFAGGDNSIRGYGYEEVSPKDSEGYLTGGQYMATASLEYQYRVVGNWWVATFVDYGDAWLDTPDWKMGTGVGIRWASPVGPVRLDFAWGLDAEPGDEFKIHFTLGPEVLEHHHHHH | soluble
18 | MEAYNVQNLYQCLNCDDYHLCNGSLNCDPLVDREGIVCTVTGKYIQCNVRELEHHHHHH | soluble
19 | MGSDKIHHHHHHVVNAIEVSDISKQFVLRHTRSIKEAVVWLAKGRKGDLSEKFHALKNVTLEVKTGETVALLGLNGSGKSTLLKHISGVMLPDSGTVRTRGRVAGLIEVGAGFHPDLSGRDNVYLNGAILGMTEQQVNDRFDDIVEFSETGQFIDTEVKFYSSGMYLRLAFSVAVHTDPEVFLIDEILAVGDEPFQRKCIDKIQELARNGKTLVVVSHDLDLVSRICARGILLEHGNVKFDGSIHDAVALLRA | not soluble
20 | MRLFAIVLLCLVLATCASHIPSARVTHPASAGLPGLQGFQLMPPEQAVDALPYRNRYPLINAELRQGLAAHGYHESATPQFRVYYWLALRDAPLEFRPDLPPTSGMGPYLAIHRLRDETGTLRVRLVDLEERVLWEGMVSTGLSPARANPEQLELAVGALLRQLPRAR | not soluble
